Where two headings read alike, the source gives them in different places.
Key:
Type in all cases: biochemical, Drosophila melanogaster
[1] = substrate: Nc1nc2c(ncn2[C@@H]2O[C@H](COP(=O)(O)OP(=O)(O)OP(=O)(O)O)[C@@H](O)[C@H]2O)c(=O)[nH]1
[2] = substrate: Nc1nc2c(ncn2[C@@H]2O[C@H](COP(=O)(O)OP(=O)(O)OP(=O)(O)O)[C@@H](O)[C@H]2O)c(=O)[nH]1; remark: listed apart in the source
[3] = substrate: Nc1nc2c(ncn2[C@@H]2O[C@H](COP(=O)(O)OP(=O)(O)OP(=O)(O)O)[C@@H](O)[C@H]2O)c(=O)[nH]1; remark: listed apart in the source
[4] = substrate: Nc1nc2c(ncn2[C@@H]2O[C@H](COP(=O)(O)OP(=O)(O)OP(=O)(O)O)[C@@H](O)[C@H]2O)c(=O)[nH]1; remark: listed apart in the source

B1: Gycα-99B/β-100B (Drosophila melanogaster) (protein)
chain 1: MACPFFRRADSLTRQPSVIAEPGGHWALEDEELSDDALTLTHLQMAIQLLTAPSNEDLNTAVTSLVAKYRQNWPNIHKLKLDPQTFKSCANYDYLADIQELLLKMDEASASEILVLLGEELITCCCTGIIERAFRCLGTDLQEFLGSLDGVYDVLKLQEEDVTDTGFVCAGEGELIFTSERPVIAWLLLGSLKALTRMLYKVDVNIKIEPVEGDARRYRYLFSLVKDNSQTMLMGRPTSVSKTIPETVQRSNSSNASDLQMNSSSFCKMFPWHFIMNEQLELVQLGRGFSKLYKPYMADFGCQATTYFDFKRPKGLTMKFRDIVRRTYTPFLIGLNNPPGAVDFPAIGLEIKGQMVHCPESNSLLFIGSPFLDGLDGLTCNGLFISDIPLHDATREVILVGEQARAQDGLRRRMDKIKNSIEEANSAVTKERKKNVSLLHLIFPAEIAEKLWLGSSIDAKTYPDVTILFSDIVGFTSICSRATPFMVISMLEGLYKDFDEFCDFFDVYKVETIGDAYCVASGLHRASIYDAHKVAWMALKMIDACSKHITHDGEQIKMRIGLHTGTVLAGVVGRKMPRYCLFGHSVTIANKFESGSEALKINVSPTTKDWLTKHEGFEFELQPRDPSFLPKEFPNPGGTETCYFLESFRNPALDSELPLVEHINVSMKTISEGGDA
chain 2: MYGFVNYALELLVLKHFGEEIWEKIKKKAMVSMEGQFLVRQIYDDEITYNLIGAAVEILNIPADDILELFGKTFFEFCQDSGYDKILQVLGATPRDFLQNLDALHDHLGTLYPGMRAPSFRCTEKDGELLLHYYSERPGLEHIVIGIVKAVASKLHGVEVEIDIVKRKGEPIDEAEKERAIARENQQLLEDAVATTTTGSATVVLAPSSDAERNNNHNGSNGSNNNGMANNGNTVNVNNNNDGQQIASETDPSIALSTCPIAQDSFDCDGDKEQKCLRLLKNKSDDIERYDHVQFLIREINVAAKSQVDAKKDEVPDDMEFLCEAPLISPATFCKVFPFHLMFDRQMKIVQAGKAVSRVIPRVAEENCSLIEVVEAIRPHLQLNFENILSHINTIYVLQTRQGAMSSRHEQRFLRLKGQMMYIPETDRILFQCYPSVMNLDDLTKKGLYISDVPLHDAARDLVLLSEKFEAEYKLTKNLEMLTDKLQQTFRDLESEKQKTDRLLYSVLPKSVANELRHQRPVPPKRYDSVTLMFSGIVGFGQYCAANTDPDGAMKIVKMLNELYTVFDALTDSKRNLNVYKVETVGDKYMAVSGLPDHCEDHAKCMARVALDMMDMAKNVKMGSNPVQITIGIHSGEVVTGVIGNRVPRYCLFGNTVNLTSRTETTGVPGRINVSEETYRLLCMAINQDDSFHLEYRGPVIMKGKPTPMDCWFLTRATSSILGGTSSTGGSGGGGNGSLDSPLLQPATPTAGAATPIPVVAQRAAGHASVSRTSSAGGGGGGAVVGT
[1]; other: in the presence of Mg2+
  Km: 370 ± 60 µM
  Vmax: 2.11 ± 0.10 pmoles cGMP/min/mg protein
[1]; other: in the presence of Mn2+
  Km: 31 ± 8 µM
  Vmax: 204 ± 10.6 pmoles cGMP/min/mg protein

B2: Gyc-88EL (Drosophila melanogaster) (protein)
chain: MYGLLLENLSEYIKSVYGEEKWEDIRRQAGIDSPSFSVHQVYPENLLQKLAKKAQQVLGVSERDFMDQMGVYFVGFVGQYGYDRVLSVLGRHMRDFLNGLDNLHEYLKFSYPRMRAPSFICENETKQGLTLHYRSKRRGFVYYTMGQIREVARYFYHKEMHIELVREEILFDTVHVTFQLTFDNRAFTLASLAMTREEKHLPISAHVLFEIFPFCMVFGADMVVRSIGNSLMVILPELLGKKITAWFDLVRPLIAFKFQTILNRTNNIFELVTVDPVTERFDVQNEDLLQHEDGSEPEKSLRLKGQMVYMENWRMIMFLGTPVMPDLTSLITTGLYINDLSMHDFSRDLMLAGTQQSVELKLALDQEQQKSKKLEESMRLLDEEMRRTDELLYQMIPKQVADRLRRGENPIDTCEMFDSVSILFSDIVTFTEICSRITPMEVVSMLNAMYSIFDKLTERNSVYKVETIGDAYMVVAGAPDKDANHAERVCDMALDMVDAITDLKDPSTGQHLRIRVGVHSGAVVAGIVGLKMPRYCLFGDTVNTASRMESTSIAMKVHISESTKVLIGPNYKIIERGEIDVKGKGTMGTYWLEERENRLPLQLTAALQVHPLSPVPPTPTPKTKAIMPPVSKPLTPMMPVSVSLAASMPTSNVPAVDVMASSSSISGLALTAAAAAHMSLHHQAVVAEALTGASVEVALPSVASGATGAAAGGGAPSDDRNSRIYSPVTFKDVARRSVANSPVRSCAQPDQERRRESRSNSTGHVFMRTPSEIFGSLILDTEEFLEDLQISRSSLANNNNNQSPCGFSPTPPFRIGSAPPKPRPSNPDKFTPEELAAMDQLTPPSTAPARETASCSSASLDRDKATKLKKITFSNSSSLDATTPTALAAVVCPMRTKSPPMAVAPVMHMVQASTSKGDGQRPGSKDSVSSISLHSPPPHRSNSAPARPHSMSKAARKAFLAAKQTKAMEKLDKMIEEVQEVESQSVAKAANMRLALYGHDGGGDLAAGGCPLFLPPPPQQQQQQQQSLMPSSISDSGLCSHGHSHAPSCHHMDPKMTNSQSFQHSPRGGITHQCCSGFGHGNGRHSHRMHSNACRIL
[2]; other: in the presence of Mg2+
  Km: 1730 ± 1300 µM
  Vmax: 1.32 ± 0.33 pmoles cGMP/min/mg protein
[2]; other: in the presence of Mn2+
  Km: 32 ± 11 µM
  Vmax: 2.26 ± 0.16 pmoles cGMP/min/mg protein

B3: Gyc-88EL/89Da (Drosophila melanogaster) (protein)
chain 1: MYGLLLENLSEYIKSVYGEEKWEDIRRQAGIDSPSFSVHQVYPENLLQKLAKKAQQVLGVSERDFMDQMGVYFVGFVGQYGYDRVLSVLGRHMRDFLNGLDNLHEYLKFSYPRMRAPSFICENETKQGLTLHYRSKRRGFVYYTMGQIREVARYFYHKEMHIELVREEILFDTVHVTFQLTFDNRAFTLASLAMTREEKHLPISAHVLFEIFPFCMVFGADMVVRSIGNSLMVILPELLGKKITAWFDLVRPLIAFKFQTILNRTNNIFELVTVDPVTERFDVQNEDLLQHEDGSEPEKSLRLKGQMVYMENWRMIMFLGTPVMPDLTSLITTGLYINDLSMHDFSRDLMLAGTQQSVELKLALDQEQQKSKKLEESMRLLDEEMRRTDELLYQMIPKQVADRLRRGENPIDTCEMFDSVSILFSDIVTFTEICSRITPMEVVSMLNAMYSIFDKLTERNSVYKVETIGDAYMVVAGAPDKDANHAERVCDMALDMVDAITDLKDPSTGQHLRIRVGVHSGAVVAGIVGLKMPRYCLFGDTVNTASRMESTSIAMKVHISESTKVLIGPNYKIIERGEIDVKGKGTMGTYWLEERENRLPLQLTAALQVHPLSPVPPTPTPKTKAIMPPVSKPLTPMMPVSVSLAASMPTSNVPAVDVMASSSSISGLALTAAAAAHMSLHHQAVVAEALTGASVEVALPSVASGATGAAAGGGAPSDDRNSRIYSPVTFKDVARRSVANSPVRSCAQPDQERRRESRSNSTGHVFMRTPSEIFGSLILDTEEFLEDLQISRSSLANNNNNQSPCGFSPTPPFRIGSAPPKPRPSNPDKFTPEELAAMDQLTPPSTAPARETASCSSASLDRDKATKLKKITFSNSSSLDATTPTALAAVVCPMRTKSPPMAVAPVMHMVQASTSKGDGQRPGSKDSVSSISLHSPPPHRSNSAPARPHSMSKAARKAFLAAKQTKAMEKLDKMIEEVQEVESQSVAKAANMRLALYGHDGGGDLAAGGCPLFLPPPPQQQQQQQQSLMPSSISDSGLCSHGHSHAPSCHHMDPKMTNSQSFQHSPRGGITHQCCSGFGHGNGRHSHRMHSNACRIL
chain 2: not shown
[3]; other: in the presence of Mg2+
  Km: 2060 ± 1950 µM
  Vmax: 1.92 ± 0.65 pmoles cGMP/min/mg protein
[3]; other: in the presence of Mn2+
  Km: 149 ± 14 µM
  Vmax: 90.1 ± 2.34 pmoles cGMP/min/mg protein

B4: Gyc-88EL/89Db (Drosophila melanogaster) (protein)
chain 1: MYGLLLENLSEYIKSVYGEEKWEDIRRQAGIDSPSFSVHQVYPENLLQKLAKKAQQVLGVSERDFMDQMGVYFVGFVGQYGYDRVLSVLGRHMRDFLNGLDNLHEYLKFSYPRMRAPSFICENETKQGLTLHYRSKRRGFVYYTMGQIREVARYFYHKEMHIELVREEILFDTVHVTFQLTFDNRAFTLASLAMTREEKHLPISAHVLFEIFPFCMVFGADMVVRSIGNSLMVILPELLGKKITAWFDLVRPLIAFKFQTILNRTNNIFELVTVDPVTERFDVQNEDLLQHEDGSEPEKSLRLKGQMVYMENWRMIMFLGTPVMPDLTSLITTGLYINDLSMHDFSRDLMLAGTQQSVELKLALDQEQQKSKKLEESMRLLDEEMRRTDELLYQMIPKQVADRLRRGENPIDTCEMFDSVSILFSDIVTFTEICSRITPMEVVSMLNAMYSIFDKLTERNSVYKVETIGDAYMVVAGAPDKDANHAERVCDMALDMVDAITDLKDPSTGQHLRIRVGVHSGAVVAGIVGLKMPRYCLFGDTVNTASRMESTSIAMKVHISESTKVLIGPNYKIIERGEIDVKGKGTMGTYWLEERENRLPLQLTAALQVHPLSPVPPTPTPKTKAIMPPVSKPLTPMMPVSVSLAASMPTSNVPAVDVMASSSSISGLALTAAAAAHMSLHHQAVVAEALTGASVEVALPSVASGATGAAAGGGAPSDDRNSRIYSPVTFKDVARRSVANSPVRSCAQPDQERRRESRSNSTGHVFMRTPSEIFGSLILDTEEFLEDLQISRSSLANNNNNQSPCGFSPTPPFRIGSAPPKPRPSNPDKFTPEELAAMDQLTPPSTAPARETASCSSASLDRDKATKLKKITFSNSSSLDATTPTALAAVVCPMRTKSPPMAVAPVMHMVQASTSKGDGQRPGSKDSVSSISLHSPPPHRSNSAPARPHSMSKAARKAFLAAKQTKAMEKLDKMIEEVQEVESQSVAKAANMRLALYGHDGGGDLAAGGCPLFLPPPPQQQQQQQQSLMPSSISDSGLCSHGHSHAPSCHHMDPKMTNSQSFQHSPRGGITHQCCSGFGHGNGRHSHRMHSNACRIL
chain 2: not shown
[4]; other: in the presence of Mg2+
  Km: 890 ± 170 µM
  Vmax: 4.83 ± 0.33 pmoles cGMP/min/mg protein
[4]; other: in the presence of Mn2+
  Km: 9.4 ± 4.8 µM
  Vmax: 8.72 ± 0.82 pmoles cGMP/min/mg protein

From article PMC1307573
